One test addresses T1, Mcl-1, Q07820.
T1 chain: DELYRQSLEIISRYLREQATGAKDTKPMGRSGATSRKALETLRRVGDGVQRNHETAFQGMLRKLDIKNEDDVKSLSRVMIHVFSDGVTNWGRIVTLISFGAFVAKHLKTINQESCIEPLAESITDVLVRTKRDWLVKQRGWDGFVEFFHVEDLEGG
As to the kind of experiment: peptide SPOT array, c-Myc-tagged receptor at 1 uM or 100 nM, anti-c-Myc-Cy3.

The next test concerns the target Bcl-xL, Q07817. The test is described as above.

Chain of Bcl-xL, Q07817 (Q07817 1-209): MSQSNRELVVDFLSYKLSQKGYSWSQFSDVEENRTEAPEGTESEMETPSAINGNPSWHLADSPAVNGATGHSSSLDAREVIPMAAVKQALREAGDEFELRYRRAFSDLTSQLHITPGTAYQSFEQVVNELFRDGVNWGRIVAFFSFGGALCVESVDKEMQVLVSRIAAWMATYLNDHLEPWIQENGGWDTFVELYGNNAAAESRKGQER

TESGSFVANLLKDLGLEIGELAVRGA [PCDHB2] came in with an SPOT signal as a fraction of Bim BH3's signal on the same receptor and array with Mcl-1, Q07820 of 0.02.
The same measure, in the same setting: then CVSDQELGLLIKEVADALGGGADPET [KCNK4], with 0.01; and DKATENCVCILHNLSYQLEAELPEKY [PKP2], with 0.01.
In the case of RRTSINVVRHDGIVGECNIQFALHPT, the SPOT signal as a fraction of Bim BH3's signal on the same receptor and array in the test with Bcl-xL, Q07817 turned out to be 0.03; in the test with Mcl-1, Q07820 it was 0.03.
REAAVSASDILQESAIHSPGTVEKEA [C12orf43]: the SPOT signal as a fraction of Bim BH3's signal on the same receptor and array in the test with Mcl-1, Q07820 is 0.01.
On to NKRHRPIGIGVQGLADAFILMRYPFE [RRM1], for which the SPOT signal as a fraction of Bim BH3's signal on the same receptor and array with Bcl-xL, Q07817 worked out at 0.04; with Mcl-1, Q07820 it was 0.04.
For CALLGSTGERICLALDSAGGNLCFTV [LIPE], the SPOT signal as a fraction of Bim BH3's signal on the same receptor and array with Bcl-xL, Q07817 is 0.01; in the test with Mcl-1, Q07820 it was 0.01.
CGDLASLSIDIWTLLEEVDGRRLVVA [BIRC6]: the SPOT signal as a fraction of Bim BH3's signal on the same receptor and array with Bcl-xL, Q07817 was 0.03; with Mcl-1, Q07820, 0.03.
For the molecule SPYVFNGGTILAIALEDFAIVASDTR [PSMB1], the SPOT signal as a fraction of Bim BH3's signal on the same receptor and array in the test with Bcl-xL, Q07817 is 0.02; in the test with Mcl-1, Q07820, 0.01.
SSAPAAAAGLLREAGSGGRERADWRR [MAP3K1] yielded an SPOT signal as a fraction of Bim BH3's signal on the same receptor and array with Mcl-1, Q07820 of 0.07.
As to RLAHEHHCLRDKILGDCYYCVSGLPE [ADCY8], the SPOT signal as a fraction of Bim BH3's signal on the same receptor and array was found to be 0.02 with Bcl-xL, Q07817 and 0.01 in the test with Mcl-1, Q07820.
For RFVVIDNCIALKKVASRLKKKRKKKN [TTC3], in the test with Mcl-1, Q07820, the SPOT signal as a fraction of Bim BH3's signal on the same receptor and array came out at 0.17.
Same read-out and setting: then HQAEVQIARKLQCIADQFHRLHVQQH [BMF], with 0.48.
Consider ALKKADVGFADGIAGTDVAKEASDII [ATP2B1], for which the SPOT signal as a fraction of Bim BH3's signal on the same receptor and array with Bcl-xL, Q07817 was determined as 0.01; in the test with Mcl-1, Q07820, 0.01.
For the molecule SAGVPVRGVEDQAAAERFARCFGRTD, the SPOT signal as a fraction of Bim BH3's signal on the same receptor and array with Bcl-xL, Q07817 is 0.02; with Mcl-1, Q07820, 0.02.
As to HGTSSRIGSSDKSVGEVMAIGRTFEE, the SPOT signal as a fraction of Bim BH3's signal on the same receptor and array with Bcl-xL, Q07817 was determined as 0.02; with Mcl-1, Q07820 it was 0.02.
Molecule SLIEYKAAVTLQRAALKFLAKYRKKK [IQCB1] had an SPOT signal as a fraction of Bim BH3's signal on the same receptor and array in the test with Mcl-1, Q07820 of 0.24.
SAGVPVRGVELQAAAERFARCFGRTD: the SPOT signal as a fraction of Bim BH3's signal on the same receptor and array with Bcl-xL, Q07817 came to 0.12; in the test with Mcl-1, Q07820, 0.04.
Taken in the same sequence, the figures for RRTSINVVRHLGIVGECNIQFALHPT were 0.03 and 0.02.
In the test with Mcl-1, Q07820, KCCYGYCIDLLERLAEDTPFDFELYL [GRIN3B] yielded an SPOT signal as a fraction of Bim BH3's signal on the same receptor and array of 0.02.
For the molecule GLTWDPVGKYDASQADDRSLKVWRTL [HIRA], the SPOT signal as a fraction of Bim BH3's signal on the same receptor and array with Bcl-xL, Q07817 was 0.17; in the test with Mcl-1, Q07820, 0.23.
Molecule GVMTQEVGQLLQDMGDDVYQQYRSLT [HUWE1] displayed an SPOT signal as a fraction of Bim BH3's signal on the same receptor and array with Mcl-1, Q07820 of 0.45.
Take ANLEISYAKGLQKLASKLSKALQNTR [NOSTRIN]: in the test with Mcl-1, Q07820, the SPOT signal as a fraction of Bim BH3's signal on the same receptor and array came to 0.22.
Same read-out and setting: under CANHPSAVNVLTEHSEELGEFMETKG [ARHGEF7] stands 0.01.
Consider HPRRESQVRQDAWIGDGVWVSIRLDS [MAPK8IP3], for which the SPOT signal as a fraction of Bim BH3's signal on the same receptor and array in the test with Bcl-xL, Q07817 amounted to 0.02; with Mcl-1, Q07820, 0.02.
Regarding PSLSKELTSSDAGVGDVSFDSDSQFP [CRTC1], the SPOT signal as a fraction of Bim BH3's signal on the same receptor and array in the test with Bcl-xL, Q07817 amounted to 0.01; in the test with Mcl-1, Q07820 it was 0.01.
Take RRTSINVVRHLGIVLECNIQFALHPT: the SPOT signal as a fraction of Bim BH3's signal on the same receptor and array is 0.14 with Bcl-xL, Q07817 and 0.1 with Mcl-1, Q07820.
Taken in the same sequence, the figures for RVSWNITGTVLASSLDDGCVRLWKAN [SEH1L] were 0.18 and 0.08.
The molecule QATHDQAVQALKRAGKEVLLEVKFIR [SNTB2] returned an SPOT signal as a fraction of Bim BH3's signal on the same receptor and array in the test with Mcl-1, Q07820 of 0.02.
IFNGSNWIMLIYKGGDEYDNHCGKEQ [M6PR]: the SPOT signal as a fraction of Bim BH3's signal on the same receptor and array with Mcl-1, Q07820 came to 0.02.
Turning to ELQAPATVQSDGLLGDRLCVGAAGGF [CDC42BPG], the SPOT signal as a fraction of Bim BH3's signal on the same receptor and array in the test with Bcl-xL, Q07817 was determined as 0.01; with Mcl-1, Q07820, 0.01.
Take LNAVNYISTVLADWADNVFFLQLQQA [RINT1]: the SPOT signal as a fraction of Bim BH3's signal on the same receptor and array with Bcl-xL, Q07817 came to 0.02; in the test with Mcl-1, Q07820 it was 0.03.
Taken in the same sequence, the figures for RIEMWISILELNELGEYAAVELHQAK [KIF13A] were 0.02 and 0.02.
Taken in the same sequence, the figures for LRCEMASTGEVACFGEGIHTAFLKAM were 0.03 and 0.03.
EAGNMAAVGRLQAVSRRLFAELENER [KIAA1751] gave an SPOT signal as a fraction of Bim BH3's signal on the same receptor and array in the test with Mcl-1, Q07820 of 0.02.
With QQMHHNAATAMAQRADMLRGLSPRES [NCOR2], the SPOT signal as a fraction of Bim BH3's signal on the same receptor and array in the test with Bcl-xL, Q07817 was determined as 0.06; in the test with Mcl-1, Q07820, 0.01.
As for TLLTPGYSVIIEKLAEGLDIQLKSPV [KDM1B], the SPOT signal as a fraction of Bim BH3's signal on the same receptor and array in the test with Mcl-1, Q07820 is 0.02.
On the same count and under the same terms, under SEDHFRAAYLLKDVAKEAYQDVAFTQ [BNC1] stands 0.02.
Regarding IVGGCVVGIAMARFLDFIRGMLKLIL [DIRC2], the SPOT signal as a fraction of Bim BH3's signal on the same receptor and array with Bcl-xL, Q07817 came out at 0.29; with Mcl-1, Q07820 it was 0.18.
Taken in the same sequence, the figures for AALFLHAGCQLLTAGEDGKVQVWSGS [TEP1] were 0.02 and 0.02.
In the test with Mcl-1, Q07820, QVQNIKLAGSLQHVAEKLCRELYNKA [CLEC1A] came in with an SPOT signal as a fraction of Bim BH3's signal on the same receptor and array of 0.11.

Values taken from paper PMC4072508, “Genome-Wide Prediction and Validation of Peptides That Bind Human Prosurvival Bcl-2 Proteins” (PLoS Computational Biology, 2014).
